Measurements: PMC9733695

Molecular target: human FcRn (neonatal Fc receptor), coupled to a Sepharose affinity column (human) (UniProt P55899)
Test: FcRn affinity chromatography

Sequence of UniProt P55899 (P55899 whole entry, looked up, tested part not stated): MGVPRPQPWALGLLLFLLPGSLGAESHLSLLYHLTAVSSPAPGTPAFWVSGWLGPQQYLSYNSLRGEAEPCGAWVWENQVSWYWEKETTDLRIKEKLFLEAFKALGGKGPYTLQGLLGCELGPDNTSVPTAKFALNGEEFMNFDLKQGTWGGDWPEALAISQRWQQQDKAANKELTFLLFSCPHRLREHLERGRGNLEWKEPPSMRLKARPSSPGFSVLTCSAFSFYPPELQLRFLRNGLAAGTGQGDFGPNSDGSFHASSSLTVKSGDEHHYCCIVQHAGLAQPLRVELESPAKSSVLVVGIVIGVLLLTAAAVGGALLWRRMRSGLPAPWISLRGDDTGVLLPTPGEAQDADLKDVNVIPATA

Substance	retention time on the FcRn affinity column
Antibody 4 TM (human IgG1 Fc with the TM modification)	15.9 min
Antibody 4 WT (wild-type human IgG1 Fc)	16.3 min
